The values below come from patent publication US20250313632A1.

Broadly, the EC50 is the concentration needed to bring the measured effect to its halfway point. As a reminder, the Kd is the equilibrium constant for the complex coming apart. A higher Kd goes with weaker binding. By koff is commonly meant the first-order rate constant of dissociation. The low end stands for slow dissociation, the high end for fast dissociation. As usually defined, the kon is a measure of how fast the partners come together. Read a low kon as slow association.

Test [1] addresses human B7-H3 expressed on A375 tumor cells (human) (UniProt Q5ZPR3). The test is described as follows: flow cytometry on A375 cells, MFI(PE); unit from the axis Conc (nM). In general terms: Flow cytometry measures light scatter and fluorescence of single cells or particles in a stream.
Test [2] shares this target. The test is described as above. This is another data set of the same source.
Test [3] concerns the target human B7-H3 (4Ig) protein (his tag) (human) (UniProt Q5ZPR3). The test is described as follows: SPR (Biacore T200), antibody captured on Protein A chip, B7-H3 injected, 1:1 model.
The target in test [4] is human B7-H3 protein (human) (UniProt Q5ZPR3). The test is described as follows: Octet (BLI) epitope binning on captured human B7-H3; competitor 72D1D11. Background: Biolayer interferometry detects binding as a change in optical thickness at a sensor tip.
For test [5] the target is unchanged. The test is described as follows: Octet (BLI) epitope binning on captured human B7-H3; competitor AHP06345.
Test [6] shares this target. The test is described as follows: Octet (BLI) epitope binning on captured human B7-H3; competitor AHP05562.
Test [7] has the same target. The test is described as follows: Octet (BLI) epitope binning on captured human B7-H3; competitor CA84D.

Where two headings read alike, the source gives them in different places.

B1: 72D1D11-z1 (antibody, V domains shown)
VH: QVQLVQSGSELKKPGASVKVSCKASGYTFTNLGLNWVRQAPGQGLEWMGWINTAGGQPTYAEDFKGRFVFSLDTSVSTAYLQISSLKAEDTAVYYCARDDGYYYTMDYWGQGTTVTVSS
VL: DIVMTQTPLSLPVTPGEPASISCRSSQSLVHSNGKTYLHWYLQKPGQSPQLLIYKVSNRFSGVPDRFSGSGSGTDFTLKISRVEAEDVGVYYCSQSTHVPWTFGGGTKLEIK
In turn, B1 displayed an EC50 in test [1] of 0.63 nM.

B2: 72D1D11-z4 (antibody, V domains shown)
VH: QVQLVQSGSELKKPGASVKVSCKASGYTFTNLGLNWVRQAPGQGLEWMGWINTAGGQPTYAEDFKGRFVFSLDTSVSTAYLQISSLKAEDTAVYYCARDDGYYYTMDYWGQGTTVTVSS
VL: DIVMTQSPLSLPVTPGEPASISCRSSQSLVHSNGKTYLHWYLQKPGQSPQLLIYKVSNRFSGVPDRFSGSGSGTDFTLKISRVEAEDVGVYFCSQSTHVPWTFGGGTKLEIK
The molecule B2 returned an EC50 in test [1] of 0.49 nM.

B3: 72D1D11-z3p2 (antibody, V domains shown)
VH: QVQLVQSGSELKKPGASVKVSCKASGYTFTNLGLNWVRQAPGQGLEWMGWINTAGGQPTYAEDFKGRFVFSLDTSVSTAYLQISSLKAEDTAVYYCARDDGYYYTMDYWGQGTTVTVSS
VL: DIVMTQSPLSLPVTPGEPASISCRSSQSLVHSQGKTYLHWYLQKPGQSPQLLIYKVSNRFSGVPDRFSGSGSGTDFTLKISRVEAEDVGVYYCSQSTHVPWTFGGGTKLEIK
Molecule B3 returned an EC50 in test [2] of 0.3 nM.

B4: 72D1D11-z3p1 (antibody, V domains shown)
VH: QVQLVQSGSELKKPGASVKVSCKASGYTFTNLGLNWVRQAPGQGLEWMGWINTAGGQPTYAEDFKGRFVFSLDTSVSTAYLQISSLKAEDTAVYYCARDDGYYYTMDYWGQGTTVTVSS
VL: DIVMTQSPLSLPVTPGEPASISCRSSQSLVHSNAKTYLHWYLQKPGQSPQLLIYKVSNRFSGVPDRFSGSGSGTDFTLKISRVEAEDVGVYYCSQSTHVPWTFGGGTKLEIK
In test [2], B4 yielded an EC50 of 0.36 nM.

B5: 72D1D11-z5 (antibody, V domains shown)
VH: QVQLVQSGSELKKPGASVKVSCKASGYTFTNLGLNWVRQAPGQGLEWMGWINTAGGQPTYAEDFKGRCVFSLDTSVSTAYLQISSLKAEDTAVYYCARDDGYYYTMDYWGQGTTVTVSS
VL: DIVMTQTPLSLPVTPGEPASISCRSSQSLVHSNGKTYLHWYLQKPGQSPQLLIYKVSNRFSGVPDRFSGSGSGTDFTLKISRVEAEDVGVYYCSQSTHVPWTFGGGTKLEIK
Molecule B5 yielded an EC50 in test [1] of 0.51 nM.

B6: 72D1D11-z6 (antibody, V domains shown)
VH: QVQLVQSGSELKKPGASVKVSCKASGYTFTNLGLNWVRQAPGQGLEWMGWINTAGGQPTYAEDFKGRCVFSLDTSVSTAYLQISSLKAEDTAVYYCARDDGYYYTMDYWGQGTTVTVSS
VL: DIVMTQTPLSLPVTPGEPASISCRSSQSLVHSNGKTYLHWYLQKPGQSPQLLIYKVSNRFSGVPDRFSGSGSGTDFTLKISRVEAEDVGVYFCSQSTHVPWTFGGGTKLEIK
Turning to B6, the EC50 in test [1] is 0.54 nM.

B7: 72D1D11-z2 (antibody, V domains shown)
VH: QVQLVQSGSELKKPGASVKVSCKASGYTFTNLGLNWVRQAPGQGLEWMGWINTAGGQPTYAEDFKGRFVFSLDTSVSTAYLQISSLKAEDTAVYYCARDDGYYYTMDYWGQGTTVTVSS
VL: DIVMTQTPLSLPVTPGEPASISCRSSQSLVHSNGKTYLHWYLQKPGQSPQLLIYKVSNRFSGVPDRFSGSGSGTDFTLKISRVEAEDVGVYFCSQSTHVPWTFGGGTKLEIK
In test [1], B7 showed an EC50 of 0.52 nM.

B8: AHP06358 (antibody, V domains shown)
VH: EVQLVQSGAEVKKPGASVKVSCKASGYTFTSYGISWVRQAPGQGLEWMGWISAYNGNTNYAQKLQGRVTMTTDTSTSTAYMELRSLRSDDTAVYYCARDSPLQIAVAGYYYGMDVWGQGTTVTVSS
VL: NFMLTQPHSVSESPGKTVTISCTRSSGSIVSGYVQWYQQRPGSAPSTVIYEHNQRPSGVPDRFSGSIDSSSNSASLTISGLRTEDEADYYCQSYDSRNMIFGGGTKLTVL
The molecule B8 had a Kd in test [3] of 0.738 nM. This molecule gave a koff in test [3] of 0.00396 s⁻¹. In addition, the kon in test [3] amounted to 5.37e+06 M⁻¹ s⁻¹. Moreover, the inhibition ratio in test [4] is -13.9%; in test [5], -10.6%; in test [6], 91.7%; in test [7], -13.6%. This molecule returned an EC50 in test [2] of 2.4 nM.

B9: 126C10B10 (antibody, V domains shown)
VH: GVQLQQSGAELVKPGASVKLSCTGSGFNIKDPYIHWVKQRPEQGLEWIGRIDPANGNTKYGPRFQGRATMTADTSSNTANLQLSSLTSEDTAVYYCTTWNYYLSRGFDYWGQGTTLTVSS
VL: QIVLTQSPAIMSASPGEKVTMTCSARSSVTYMHWYQQKSGTSPKRWIYDTSKLASGVPARFSGSGSGTSYSLTISSMEAEDAATYYCQQWTSNPLTFGAGTKLELK
On to B9, for which, in test [3], the Kd turned out to be 0.837 nM. In addition, the koff in test [3] came out at 0.000367 s⁻¹. In test [3], this molecule showed a kon of 438000 M⁻¹ s⁻¹. In addition, the inhibition ratio in test [4] is 96.6%; in test [5], -5.98%; in test [6], -22.2%; in test [7], -9.58%. In test [2], this molecule had an EC50 of 0.22 nM.

B10: 62H9H5 (antibody, V domains shown)
VH: QVQLQQSGAELAKPGASVKMSCKASGYTFTNYWIHWVKQRPGQGLEWIGYISPSTGYTEYNQKFKGKATLTAVKSSSTAFMQLSSLTSEDSAVYFCARGTGYWGQGTTLTVSS
VL: DIQMTQSPASLSASVGESVTITCRASENIYSFFAWYQQKEGKSPQLLVYNAKTLEEGVPSRFSGSGSGTQFSLKINSLQPEDFGSYYCQHNYVSPFTFGSGTKLEIK
In the case of B10, the Kd in test [3] is 0.464 nM. The molecule also returned a koff in test [3] of 0.00016 s⁻¹. In addition, in test [3], the kon stood at 346000 M⁻¹ s⁻¹. Further, the inhibition ratio was 95.5% in test [4], -7.1% in test [5], 90.2% in test [6] and -6.07% in test [7]. In test [2], the EC50 was 0.042 nM.

B11: 106A5B3 (antibody, V domains shown)
VH: EVQLVESGGDLVKPGGSLKLSCAASGFTFSSYGMSWVRQTPDKRLEWVATISSGGSYIYYPDSMKGRFTISRDNAKNTLYLQMSSLQSEDTAIYYCASDYGSRYFDYWGQGTTLTVSS
VL: QIVLTQSPAIMSASPGEKVTMTCSASSSVIYMSWYKQKPGSSPRLLIYDTSNLASGVPVRFSGSGSGTSYSLTISRMEAEDAATYYCQQWSSYPRTFGGGTKLEIK
Take B11: in test [3], the Kd was determined as 0.476 nM. Besides, the koff in test [3] was found to be 0.000396 s⁻¹. Besides, in test [3], the kon turned out to be 833000 M⁻¹ s⁻¹. Also, the inhibition ratio in test [4] was 96.8%; in test [5], -13%; in test [6], 89.6%; in test [7] it was -15.8%. The molecule also gave an EC50 in test [2] of 0.1 nM.

B12: 97E6B2 (antibody, V domains shown)
VH: QVQLQQPGAELVKPGASVKMSCKASGYTFTSYWITWVKQRPGQGLEWIGDIYPGSNNTYYNEKFKSKATLTVDTSSSTAYIQLSSLTSEDSAVYYCARLIMSLFDYSGQGTTLTVSS
VL: ENVLTQSPANMSASPGEKVTMTCSVSSSVSYIHWYQQKSSTSPTLWIYDTSKLASGVPGRFSGSGSGNSYALTISSMEAEDVATYYCFQGSAYPLTFGAGTKLELK
In test [3], B12 yielded a Kd of 0.743 nM. In addition, the koff in test [3] was found to be 0.000481 s⁻¹. In addition, in test [3], the kon stood at 647000 M⁻¹ s⁻¹. Further, the inhibition ratio was 99.7% in test [4], -1.18% in test [5], -7.8% in test [6] and -3.99% in test [7]. The molecule also registered an EC50 in test [2] of 0.26 nM.

B13: 216E7A9 (antibody, V domains shown)
VH: DVQLVESGGGLVQPGGSRKLSCAASGFTFSSFGMHWVRQAPEKGLEWVAYISSGSSTIYYADTVRGRFTISRDNPKNTLFLQMTSLRSEDTAMYYCARGGDYYYALDYWGQGTSVTVSS
VL: DIQMTQSPASLSVSVGETVTITCRASENIHSNLEWYQQKQGKSPQLLVYAATNLADGVPSRFSGSGSGTQYSLKINSLQSEDFGSYYCQHFWGTPFTFGSGTKLEIK
In test [3], B13 yielded a Kd of 2.49 nM. For the same molecule, the koff in test [3] came to 0.000824 s⁻¹. In test [3], this molecule showed a kon of 331000 M⁻¹ s⁻¹. Also, the inhibition ratio in test [4] was 98%; in test [5] it was 1.99%; in test [6] it was 92.3%; in test [7], 5.28%. This molecule yielded an EC50 in test [2] of 0.08 nM.

B14: 294A3C4 (antibody, V domains shown)
VH: QVQLQQPGAELVKPGASVKLSCKASGYTFTSYWMHWVKQRPGQGLEWIGMFHPNSGTTNYNEKFKSKATLTVDKSSSTAYMQLSSLTSEDSAVYYCARRLGIFFDYWGQGTTLTVSS
VL: DIVMTQSPSSLTVTAGEKVTMSCRSSQSLLNSGNQKNYLTWYQQKPGQPPKLLIYWASTRDSGVPDRFTGSGSGTDFTLTISSVQTEDLAVYYCQTDYSYPFTFGSGTKLEIK
With B14, in test [3], the Kd turned out to be 2.92 nM. Besides, the koff in test [3] came to 0.00135 s⁻¹. This molecule gave a kon in test [3] of 463000 M⁻¹ s⁻¹. For the same molecule, the inhibition ratio was -5% in test [4], -7.53% in test [5], 90% in test [6] and -12% in test [7]. In test [2], this molecule gave an EC50 of 0.087 nM.

B15: 227E12D1 (antibody, V domains shown)
VH: EVKLVESGGGLVKPGGSLKLSCAASGFTFSSYGMSWVRQTPEKRLEWVATISGGGTYTYYPDSVKGRFTISRDNAKNNLYLQMSSLRSDDTALYYCARHEGLVMDYWGQGTSVTVSS
VL: DIQMTQSPASLSASVGETVTITCRASENIYSYLAWYQQKQGKSPQLVVYNAKTLAEGVPSRFSGSGSGTQFSLKINSLQPEDFGTYYCQHHYGPPPYTFGGGTKLEIK
Turning to B15, in test [3], the Kd is 0.619 nM. In addition, the koff in test [3] stood at 0.000368 s⁻¹. The kon in test [3] turned out to be 595000 M⁻¹ s⁻¹. In addition, the inhibition ratio in test [4] was 97.1%; in test [5], -5.22%; in test [6], 90%; in test [7] it was -5.46%. Further, in test [2], the EC50 turned out to be 0.093 nM.
